This note sets out measurements from PMC8358895 (Cell reports, 2021).

In the assay the target is MBP-PLK1 (UniProt P53350 1-603). In words: pull-down.
Chain of MBP-PLK1 (P53350 whole entry): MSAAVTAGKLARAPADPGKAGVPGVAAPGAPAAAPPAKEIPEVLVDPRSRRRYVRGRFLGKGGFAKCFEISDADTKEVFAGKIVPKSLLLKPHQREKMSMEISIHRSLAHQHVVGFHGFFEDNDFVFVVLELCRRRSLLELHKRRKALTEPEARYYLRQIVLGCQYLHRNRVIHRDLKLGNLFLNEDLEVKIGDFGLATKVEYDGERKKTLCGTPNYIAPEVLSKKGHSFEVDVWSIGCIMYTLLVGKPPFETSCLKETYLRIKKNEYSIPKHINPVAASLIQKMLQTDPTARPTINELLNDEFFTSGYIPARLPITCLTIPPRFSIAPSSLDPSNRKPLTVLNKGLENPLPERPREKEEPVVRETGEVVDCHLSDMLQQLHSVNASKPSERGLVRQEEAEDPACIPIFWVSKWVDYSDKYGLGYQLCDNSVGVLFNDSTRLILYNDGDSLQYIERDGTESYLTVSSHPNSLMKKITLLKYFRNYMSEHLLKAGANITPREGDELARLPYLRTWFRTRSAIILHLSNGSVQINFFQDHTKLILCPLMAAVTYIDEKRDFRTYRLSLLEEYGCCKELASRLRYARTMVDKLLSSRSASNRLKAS

B1: GST-Apolo1-N (domain or fragment)
chain: MFLPHMNHLTLEQTFFSQVLPKTVKLFDDMMYELTSQARGLSSQNLEIQTTLRNILQTMVQLLGALTGCVQHICATQESIILENIQSLPSSVLHIIKSTFVHCKNSESVYSGCLHLVSDLLQALFKEAYSLQKQLMELLDMVCMDPLVDDNDDILNMVIVIHSLLDICSVISSMDH
For the molecule B1, the binding result is given as “binds”.
